Data on 19 molecules can be found in patent US20260258115A1.

Assay [1] concerns the target RSV postfusion F (postF, F deltaFP) (Respiratory syncytial virus). Kind of assay: BLI, IgG on sensor, 100 nM antigen. In general terms: BLI is a label-free optical method that tracks binding on a fibre tip over time.
The target in assay [2] is RSV prefusion F (preF, DS-Cav1) (Respiratory syncytial virus). Put plainly: BLI, IgG on sensor, 100 nM antigen.

B1: ADI-41278 (antibody, V domains shown)
VH: EVQLVESGPALVKPTQTLTLTCTFSGFSLSTKRMGVSWIRQPPGKALEWLARIDWDDDKFYSTSLKTRLTISKDTSKNQVVLTLANMDPVDTATYFCARTTVYASGGYYLYYLDYWGQGTLVTVSS
VL: DIVMTQTPSSLSASVGDRVTLTCRASQRIASYVNWYHQKPGKAPNLLIYAASNLQSGVPSRFSGSGSGTDFTLTISSLQPEDFATYYCQQSYSTPLTFGQGTKLEIK
B1: the Kd (in general, a measure of binding affinity in units of concentration) was found to be 0.482 nM in assay [1] and 1.28 nM in assay [2].

B2: ADI-41292 (antibody, V domains shown)
VH: EVQLLESGGGVVQPGRSLRLSCAASGFSFSSYGIHWVRQAPGKGLECVALMSYDGSEKYYADSVKGRFTISRDNSKNTLYLHMNSLRREDTAVYYCAKGSHLRWSHLDYYFHLWGRGTLVTVSS
VL: DIVMTQSPSTLSASVGDRVTITCRASQSLSTWLAWYQQKPGKAPKLLISDASNLESGVPSRFSGRGSGTEFTLTISGLQPDDFATYYCQQERTFGQGTKVDIK
B2: the Kd in assay [1] worked out at 195 nM; in assay [2], 883 nM.

B3: ADI-41291 (antibody, V domains shown)
VH: QVQLQQWGAGLLKPSETLSLTCVVYGESFSDSGYYWTWIRQPPEKGLEWIGEINHGGSTSYNPSLKSRVTISVDTSENQFSLKVTSVTGADTAVYYCARLRLGCSGGSCYSRFDYWGQGTLVTVSS
VL: DIQLTQSPSSLSASVGDRVTITCRASQSINSYLNWYQQKPGKAPVLLIHAASSLQGGVPSRFSGSGSGTDFTLTISSLQPEDFATYYCQQSYNTRWTFGHGTKVDIK
B3: the Kd in assay [1] was found to be 1.2 nM; in assay [2], 2.98 nM.

B4: ADI-41303 (antibody, V domains shown)
VH: QVQLVQSGGGLVRPGGSLRVSCAASGFIFNNYALTWVRQAPGKGLEWVSAISGSGSSTYYADSVKGRFTISRENSNNRLYLQLSGLRAEDTAVYFCARVRGLVWFEGRIDPYPNVFDYWGQGTLVTVSS
VL: DIVLTQSPGTLSLSPGERATLSCRASQSVSNDYLAWYQQKPGQAPRLLIYDASSRAIGIPDRFSGSGSGTDFTLIISRLEPEDFAVYYCHHPGKFGQGTKVEIK
For the molecule B4, the figures for the equilibrium dissociation constant (Kd) in assay [1] and in assay [2] were 0.944 nM and 2.96 nM, respectively.

B5: ADI-41279 (antibody, V domains shown)
VH: QVQLVQSGAEVKKAGETLKISCRGPAHTFTSFWIGWVRQTPGKGLEWMGNIYPGDTDTTYSPSFRGQVTISADKSISTAYLQWNSLKASDTAIYYCATRVRHGYSSSGSFESWGQGTMVTVSS
VL: QSVVTQPPSVSGAPGQRITISCTGSNSNTGAGYDVHWYQQLPGAAPKLLIFANNNRPSGVPDRFSGSKSGTSASLAITGLQAEDEADYYCQSYDNSLSAYVFGTGTKLTVL
Take B5: the equilibrium dissociation constant (Kd) worked out at 47.8 nM in assay [1] and 50.4 nM in assay [2].

B6: ADI-41286 (antibody, V domains shown)
VH: QVQLVQSGAEVKKPGASVKVSCKASGYTFISYGISWVRQAPGQGPEWMGWISTHNGNTNYAQKLQGRVTMTTDTSTSTAYMELRSLRSDDTAVYYCARDERSIAVEVYLGSTFDIWGQGTMVTVSS
VL: DIQVTQSPSSVSASVGDRVTITCRASQGISSWLAWYQQKPGKAPKLLIYAASTLQSGVPSRFSGSGSGTDFTLTISRLQPEDFATYYCQQANIFGVTFGPGTKVDIK
On to B6, for which the dissociation constant Kd in assay [1] turned out to be 5.49 nM; in assay [2] it was 7.6 nM.

B7: ADI-41282 (antibody, V domains shown)
VH: QVQLVQSGGGVVQPGRSLRLSCAASGFMFTIYSMHWVRQAPGKGLEWVAVISNDGVNKYYSDSVKGRFTISRDNSKNTLYLQMNNLRAEDTAVYYCASDIVVLVTATDYWGQGTLVTVSS
VL: ETTLTQSPVTLSLSPGERATLSCRTSQSFSSPLLAWYQQKPGQAPRLLIYGASNRATGIPDRFSGSGSGTDFTLTISRLEPVDFAVYYCQQYGSSPYTFGQGTKLEIK
B7: the Kd was 1.25 nM in assay [1] and 3.25 nM in assay [2].

B8: ADI-41283 (antibody, V domains shown)
VH: QVTLKESGPTLVKPTQTLTLTCTFSGFSLSTFGVAVGWIRQPPGKALEWLALIYWDDDKRYSPSLKSRLTITKDISKNQVVLTMTNMDPVDTATYYCAHRLRSLTARGVFDIWGQGTTVTVSS
VL: DIRLTQSPSSLSASVGDRVTITCRASQSINNFLNWYQQRPGKAPTLLIYSASSLQSGVPSRFSGSGSGTDFTLTISSLQPEDFATYFCQQTDSFPWTFGQGTKVEIK
For B8, the Kd amounted to 7.95 nM in assay [1] and 27.4 nM in assay [2].

B9: ADI-41287 (antibody, V domains shown)
VH: EVQLVESGGGLVQPGRSLRLSCAASGFTFDDYAMHWVRQAPGKGLEWVSSISWHSADIGYAASVEGRFTISRDNAKNSLFLQMNSLRPEDTALYYCAKEIVSTSWYSGYFQDWGQGTLVTVSS
VL: QPVLTQPRSVSGSPGQSVTISCTGTSSDVGDYNYVSWYQQHPGKAPKLMIYDVSKRPSGVPDRFSGSKSGNTASLTISGLQGEDEADYYCCSYAGRHTFVFGTATKVTVL
Turning to B9, the values for the Kd in assay [1] and in assay [2] were 0.598 nM and 3.22 nM, respectively.

B10: ADI-41297 (antibody, V domains shown)
VH: QVQLVQSGAEVKKPGSSVKVSCKASGGTFSTDAISWVRQAPGQGLEWMGGIIPLFGTANYAQKFQGRVTITADESTSTAYMELNSLRSVDTAVYYCGRTGAFDGEVVVRPHLDLWGQGTLVTVSS
VL: QPVLTQPASVSGSPGQSITISCTGTSSDVGGYDYVSWYQHHPGKAPKLMIYEVSNRPSGVSNRFSGSKSGNTASLTISGLQADDEAAYYCSSYTRSNTLLFGGGTKLTVL
Consider B10, for which the Kd was determined as 0.628 nM in assay [1] and 3.91 nM in assay [2].

B11: ADI-41275 (antibody, V domains shown)
VH: EVQLVESGGGLVKPGGSLRLSCAASGFMFSTYSMNWVRQAPGKGLEWVSFITGSSSDKYYAHSVKGRFTISRDNAKRTLYLQLNSLRAEDTAVYYCARFRGLYCDGDCSSRGNTYYNYYGMDVWGQGTTVTVSS
VL: EIVMTQSPLSLSVIPGEPASISCRSSKSLLHSNGYTYLDWYLQKPGQSPQLLIHLGSNRASGVPDRFSGSGSGTDFTLKISRVEAEDVGVFYCMQALQAPPTFGPGTKVEIK
In the case of B11, the figures for the Kd in assay [1] and in assay [2] were 1.33 nM and 5.74 nM, respectively.

B12: ADI-41284 (antibody, V domains shown)
VH: QVQLVQSGGGLVKPGGSLRLSCAASGFTFSNAWMSWVRQAPGKGLEWVGRIKSEVDGGTADYAANVKGRLTISRDDSKNMMYLQMNSLKTEDTAVYYCTTDPGVGWIFGEVKLFRTDPEYWGQGTLVTVSS
VL: QSVLTQPPSVSAAPGQKVTISCSGSSSNIGNHYVSWYQQLPGTSPKLLIYDNNKRPSGIPDRFSGSKSGTSATLGITGLQPGDEADYYCGTWDSSLSAVRVFGGGTKVTVL
Regarding B12, the values for the Kd in assay [1] and in assay [2] were 0.547 nM and 3.06 nM, respectively.

B13: ADI-41281 (antibody, V domains shown)
VH: QVQLVQSGAEVKKPGASVKVSCKASGYSFTNHGIHWVRQAPGQRLEWMGWINVANGFTAYSQNLQGRVTFTRDTSASTAYLELTSLRSEDTAVYHCARDESYCSAGYCYLYFDYWGQGTTVTVSS
VL: DIQVTQSPSSLSASVGDRVTITCRASQNIITYVNWYQQKPGKAPELLIFGASSVQSGVPSRFSGSGSGTDFTLTISSLRPDDFATYYCQQSYSNPRTFGGGTKVEIK
For B13, the Kd turned out to be 1.58 nM in assay [1] and 6.7 nM in assay [2].

B14: ADI-41277 (antibody, V domains shown)
VH: QVQLQESGPGLVKPSGTLSLTCAVSGGSITGRNWWSWVRQPPGKELERIGEIYHGGSTEYNPSLKGRVTISVDKSKNQFSLRLNSVTAADTAVYYCARVAHYDSNGYYIGYFDLWGRGTLVTVSS
VL: EIVLTQSPPSLSASVGDRVTITCRASQSISIYLNWYQQKPGKAPKLLIFAASSLQSGVPLRFSGSGSGTDFTLTISSLQPEDFATYYCHQSYSAPWTFGQGTKVDIK
B14: the dissociation constant Kd came to 0.78 nM in assay [1] and 3.6 nM in assay [2].

B15: ADI-41293 (antibody, V domains shown)
VH: QVQLQQSGPGLAKPSQTLSLTCTVSGGPISGVDYYWSWIRQPPGKGLEWIGYIYYSGSTYYNPSLKSRVTISVDTSKKQFSLKMSSVTAADTAVYYCARDVGATPYYYYGMDVWGQGTTVTVSS
VL: DIVLTQSPDTLSLSPGERATLSCRASQSVRSNYLAWYQHKPGQAPRLLIYGASSRVAGIPDRFSGSGSGTDFTLTISRLEPEDFAVYYCQQYGSSPPSVTFGGGTKVEIK
On to B15, for which the values for the Kd in assay [1] and in assay [2] were 0.411 nM and 0.496 nM, respectively.

B16: ADI-41285 (antibody, V domains shown)
VH: QVQLVQSGAEVKKPGSSVKVSCKASGGTFSYYAISWVRQAPGQGLEWMGGIIPILGTVKNAQKFQGRVTITADKITSIAYMELSSLRHEDTAVYYCARDYYDSSGYYYNGYGMDVWGQGTTVTVSS
VL: QSVLIQPPSASGTPGQRVTISCSGSSSNIGSNYVYWYQQLPGTAPKLLIYRNDQRPSGVPDRFSGSKSGTSASLAISGLRSGDEADYYCAAWDDSLGGPIWVFGGGTKLTVL
Turning to B16, the values for the Kd in assay [1] and in assay [2] were 0.412 nM and 0.511 nM, respectively.

B17: ADI-41280 (antibody, V domains shown)
VH: QVQLVESGPGLVKPSETLALTCTVSGGSLSTYYWSWIRQPPGKGLEWIGYIYYSGTTYYNPSLKSRVTISEDRSKNQFSLKLTSVTAADTAVYYCARHGPKTEFWSAQYYLELWGRGTLVTVSS
VL: EIVLTQSPGTLSLSPGERATLSCRASQSVSSDYLAWYQQKPGQAPSLLIYGVSTRATGIPDRISGSGSGTDFTLTISRLEPEDFAVYYCHQYGTSPWTFGQGTKVEIK
Turning to B17, the Kd in assay [1] is 0.483 nM; in assay [2] it was 3.62 nM.

B18: ADI-41273 (antibody, V domains shown)
VH: EVQLLESGGDLVRPGGSLRLSCTASGFSFSSSEMNWVRQAPGKGLEWVASINSGGDDIYYADSVKGRFTISRDNAKNSLSLQMDSLRAEDTALYYCARSRSGYSSGWSRFFGNWGQGTLVTVSS
VL: QSALTQPRSVSGSPGQSVTISCTGTISDIGAYNYVSWYQQHPGKAPKVMIYDVSKRPSGVPDRFSGSKSGFTASLTISGLQAEDEADYYCCSYAGRWVFGGGTKLTVL
For the molecule B18, the results for the Kd in assay [1] and in assay [2] were 1.17 nM and 3.06 nM, respectively.

B19: ADI-41299 (antibody, V domains shown)
VH: EVQLVESGGGLVHPGRSLRLSCGASGFTFRSFAMHWVRQAPGKGLEWVAVISYDGSDEYYADSVKGRFTISRDNSRNTLFLQMNRLRPEDTAIYYCARAYCSTSNCPVLDYWGQGTLVTVSS
VL: QSVLIQPASVSGSPGQSITISCTGTSSDVGGYSLVSWYQQHPGKAPKLIIFEGNKRPAGVSDRFSGSKYGDTASLTISGLQAEDEADYYCCSYAGGHSVFGGGTKVTVL
Consider B19, for which the results for the Kd in assay [1] and in assay [2] were 2.25 nM and 3.48 nM, respectively.
